Measurements reported in the supplement of paper PMC12764529.
± gives the half width of the 95% confidence interval.

Key:
[1] = folding stability dG unfold from trypsin proteolysis; higher = more stable
Method in brief: (§1)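 Mini-proteins designed to be under 80 residues and free of cysteine were carried in a PA-tagged cDNA display construct and digested with trypsin and with chymotrypsin. Each protease was applied at 11 threefold-diluted concentrations, alongside a no-protease condition, before sequencing. K50 came from Bayesian fitting of the sequencing counts, and unfolding free energy was obtained by comparing it with a sequence-predicted unfolded-state K50 and a shared folded-state K50, for each protease separately or for both together. Designs were retained only if their AlphaFold2 dimer inter-PAE exceeded 15.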

[2] = folding stability dG unfold from chymotrypsin proteolysis; higher = more stable
Method in brief: as §1

[3] = folding stability dG unfold (combined trypsin and chymotrypsin); higher = more stable
Method in brief: as §1

| Sequence | folding stability dG unfold [1] [kcal/mol] | folding stability dG unfold [2] [kcal/mol] | folding stability dG unfold [3] [kcal/mol] |
| --- | --- | --- | --- |
| SAGGSAGGSAGSETYYIKIGDKLYTVTVEPDSITVKYPETSEEKTFSSSLPGISLEEILSSAGGSAGGSAGG [r11_648_JUSTAS] | 1.63 ± 0.041 | 1.68 ± 0.054 | 1.71 ± 0.065 |
| SAGGSAGGSAGSFLIVVRFPNSTVLFDAPEDTDVDALKKAIKKLFNADIEVEVVPKEKPLSAGGSAGGSAGG [r11_805_TrMRF] | 1.75 ± 0.058 | 1.55 ± 0.051 | 1.79 ± 0.093 |
| SAGGSAGGSAGSFTVLVTEVLDPDDPLYLKLQKELGLPPENIVRFKLYTFSSPEEVKKKISAGGSAGGSAGG [r11_83_TrMRF] | 0.923 ± 0.035 | 1.99 ± 0.13 | 1.5 ± 0.065 |
| SAGGSAGGSAGSISRTATPDGYLYTFTDSSGKTHTIPSPVPGMPLSEVAERARAAGFSTVESSAGGSAGGSA [r18_83_JUSTAS] | -0.188 ± 0.12 | 0.968 ± 0.065 | 0.618 ± 0.08 |
| SAGGSAGGSAGSKKAVIGGDGATVTYYPPLGYALVTFPDGTAALVDLKTGEIVEIAKTNDSAGGSAGGSAGG [r11_149_TrMRF] | 1.04 ± 0.059 | 2.29 ± 0.037 | 2 ± 0.11 |
| SAGGSAGGSAGSLTLVSTSSDETEEPVVRYREVYAGPVPVRVTAEESLENPGNPRLRVVLSAGGSAGGSAGG [r11_618_JUSTAS] | -0.53 ± 0.22 | -0.275 ± 0.39 | -0.251 ± 0.14 |
| SAGGSAGGSAGSMEEALAAELRARGGVAVEIERIHVPSELAPGTKLPADEVLIRVTARPAASAGGSAGGSAG [r3_229_JUSTAS] | -0.139 ± 0.46 | 0.683 ± 0.12 | 0.525 ± 0.17 |
| SAGGSAGGSAGSMKTLVTTETSTVPGTTTTVTTTTTTTYDPTSSETTTTTTPVTNPAPAASAGGSAGGSAGG [r17_309_JUSTAS] | -0.827 ± 0.28 | 1.05 ± 0.02 | 0.711 ± 0.071 |
| SAGGSAGGSAGSMQTEVTFERGPGRLTTTTTTKFPDNRWSTTTSTSPVPARPPLPPAPVLLSAGGSAGGSAG [r3_68_JUSTAS] | -0.817 ± 0.52 | -0.709 ± 0.94 | -0.416 ± 0.22 |
| SAGGSAGGSAGSMSTPRSSEKMEKDGGGETLVRTLTYPEPSLTRTVRTPPDGSSSSSTSAPSAGGSAGGSAG [r3_28_JUSTAS] | -0.452 ± 0.37 | 0.54 ± 0.11 | 0.235 ± 0.2 |
| SAGGSAGGSAGSMTITRTLPGLTVTFTRLPDPNKETITFKLGDKWTTVPASTLSSSVISLSAGGSAGGSAGG [r11_152_JUSTAS] | -0.434 ± 0.38 | -0.142 ± 0.34 | -0.14 ± 0.21 |
| SAGGSAGGSAGSMVSVEVEESELPPPYRLVTEKVSLPGSETVIEVVRDPATGEVLETKVFASSAGGSAGGSA [r18_507_JUSTAS] | 3.77 ± 0.28 | 3.33 ± 0.25 | 3.36 ± 0.59 |
| SAGGSAGGSAGSMVTKTTTVEEKIGPGNLKLVKEKITIYDPSTGKPIKEETKITIEPVLLSAGGSAGGSAGG [r17_317_JUSTAS] | -0.493 ± 0.16 | 0.452 ± 0.24 | 0.148 ± 0.38 |
| SAGGSAGGSAGSPLEEALAEARATGGPVTIRLPDGSEVVITVTEDEGELRVEVRSAAELGSAGGSAGGSAGG [r17_463_JUSTAS] | 0.99 ± 0.027 | 0.911 ± 0.042 | 1 ± 0.099 |
| SAGGSAGGSAGSTILIKNEDGSLLLVTVSDGSITIERLPPAPPPKTYEKDPETKEWREVTSAGGSAGGSAGG [r11_590_TrROS_Hall] | 1.06 ± 0.021 | 0.647 ± 0.063 | 0.878 ± 0.057 |
| SAGGSAGGSAGSTITIRINGKTYTIEVDESEEEALERIRELARALLPEGEVEVTVERREPSAGGSAGGSAGG [r11_1028_TrROS_Hall] | 2.2 ± 0.047 | 3.374 ± 0.026 | 2.98 ± 0.079 |
| SAGGSAGGSAGSTLTVTLTVRDPANPGTTTTVTLTLEVEPAPPPEVVVVKDANGNETLVPSAGGSAGGSAGG [r11_419_TrROS_Hall] | 1.29 ± 0.047 | 1.91 ± 0.052 | 1.63 ± 0.061 |
| SAGGSAGGSAGSYTVEPVELDDDSTLIRYTYPTDPNAVFPVVTVYPDGPVLTEPVVYSSSSAGGSAGGSAGG [r11_747_JUSTAS] | 0.271 ± 0.037 | 0.0377 ± 0.11 | 0.244 ± 0.091 |
| SAGGSAGGSAGTATLTDPNGVRIEVFPDGTVRATVYRPDPSTGEWKLAATFTFPLHPDAFSAGGSAGGSAGG [r11_497_TrMRF] | 1.72 ± 0.027 | 2 ± 0.067 | 1.94 ± 0.066 |
| SAGGSAGGSAGTIENVTVVGSKEFTAPGGVPTLIEYAKLPDGGTYTVTWTGDTTTTTVFPSAGGSAGGSAGG [r17_294_JUSTAS] | 0.414 ± 0.021 | 0.675 ± 0.14 | 0.624 ± 0.069 |
| SAGGSAGGSAGTIPLDNIKEVELEYDPNSGYYEHRIEFPNGRRLVIRFPPSDNVEIQWLDSAGGSAGGSAGG [r17_182_TrROS] | 1.09 ± 0.025 | 1.33 ± 0.062 | 1.31 ± 0.092 |

| Sequence | folding stability dG unfold [1] [kcal/mol] | folding stability dG unfold [2] [kcal/mol] | folding stability dG unfold [3] [kcal/mol] |
| --- | --- | --- | --- |
| SAGGSAGGSAGTIRIKTKDGKTIEIELEGLSDEELENPEVLAEIKKALEDAGFEIVEVEPSAGGSAGGSAGG [r11_467_TrROS_Hall] | 2.19 ± 0.061 | 2.04 ± 0.054 | 2.09 ± 0.078 |
| SAGGSAGGSAGTLRLEVELKLRVRNPATREWQEVTLRLEVEFEPAPPVLVRDANGRLLLLSAGGSAGGSAGG [r11_307_TrROS_Hall] | 1.68 ± 0.024 | 3.434 ± 0.021 | 2.98 ± 0.082 |
| SAGGSAGGSAGTLTFTFDGVTVEVRLVDGYLVIRVTTEVEVNGKKYKVTLELVIKLPEGLSAGGSAGGSAGG [r11_879_TrROS_Hall] | 4.5 ± 0.41 | 5.4 ± 0.28 | 5.49 ± 0.28 |
| SAGGSAGGSAGTRTITIFIPVPPGKMTPEDALDFIKPFFPDVKIEVEPVNNYYAIEITVKSAGGSAGGSAGG [r11_7_TrROS] | 1.17 ± 0.056 | 0.825 ± 0.045 | 1.04 ± 0.15 |
| SAGGSAGGSAGTSIKEAKIKLPSNGKTYKAIVTTHPNGKKYVYIPETGKVYELNNLIIEPSAGGSAGGSAGG [r11_301_TrMRF] | 1.4 ± 0.047 | 2.32 ± 0.055 | 2.02 ± 0.059 |
| SAGGSAGGSAGVEEIAKILQELGFEVEVEPVPDGMRTIEVQNKNGKKITIRITADGKIEISAGGSAGGSAGG [r17_503_TrROS] | 1.9 ± 0.03 | 2.2 ± 0.14 | 2.09 ± 0.11 |
| SAGGSAGGSAGVIDKENDRWYITQETPGGEPKTIPIPWDDIPDLPPENVKEVELMPPDDISAGGSAGGSAGG [r11_779_TrROS] | -0.179 ± 0.031 | -0.00556 ± 0.056 | -0.0024 ± 0.1 |
| SAGGSAGGSAGVKEGEEIEITLENGKTFTAKIEYDKETGYYKITIKDKKTNKEYEFVFKVSAGGSAGGSAGG [r11_960_TrROS_Hall] | 2.62 ± 0.3 | 4.39 ± 0.17 | 4.04 ± 0.22 |
| SAGGSAGGSAGVLSLEGVVSTEEFEDPSSSNKTLVITLPGGERVVVNLPSSPSSVVTRLVSAGGSAGGSAGG [r17_182_JUSTAS] | 0.215 ± 0.028 | 0.467 ± 0.066 | 0.422 ± 0.074 |
| SAGGSAGGSAGVNPNLPNYSVVPTTVTVKVLETFTDPQGNSYTREFTLEVETLIVNPPLLSAGGSAGGSAGG [r17_523_JUSTAS] | 2.89 ± 0.12 | 3.91 ± 0.084 | 3.59 ± 0.12 |
| SAGGSAGGSAGVSPNEDVKVEVLEVKPDPETGTYTVLVKDPRTGEERTLTLTPEELAKLLSAGGSAGGSAGG [r11_894_JUSTAS] | 4.42 ± 0.19 | 4.53 ± 0.073 | 4.56 ± 0.079 |
| SAGGSAGGSAGVSTTPDGVLVIKVKDPNTGKYTEIKVPTSRPEEAEKLKEKALEEGLELESAGGSAGGSAGG [r11_538_JUSTAS] | 0.708 ± 0.038 | 1.49 ± 0.022 | 1.2 ± 0.053 |
| SAGGSAGGSAGVTVSLPDGRVVTEVTTLPDGTVVITYTKDGKKYTTTLNGSAPAPTPTLASAGGSAGGSAGG [r17_421_JUSTAS] | 2.42 ± 0.083 | 2.58 ± 0.035 | 2.52 ± 0.086 |
| SAGGSAGGSAGWFTVTMMFLFPNGWAIKITWTFRMDENGNLKLEWEVEIEPVPPLKPGDPSAGGSAGGSAGG [r11_728_TrROS] | 4.38 ± 0.51 | 6.21 ± 0.35 | > 6 |
| SAGGSAGGSAGWIDPEDIKKIQHERNPNNGRGEMRLEFENGKPVEIEFKSPEEALDWLLKSAGGSAGGSAGG [r11_339_TrROS] | -0.547 ± 0.15 | -0.156 ± 0.23 | -0.185 ± 0.13 |
| SAGGSAGGSAGWIWMKVTEVNPDDGTIKIKFDGQKIKIPAKNMKIREDGDYVEIEIPEDDSAGGSAGGSAGG [r17_403_TrROS] | 0.137 ± 0.16 | 0.242 ± 0.22 | 0.228 ± 0.11 |
| SAGGSAGGSAGWLKLKFEFTFMIIIWNDDGNNELVMIPIRIRITMTIPPIKYDPDGKLKLSAGGSAGGSAGG [r11_558_TrROS] | 2.87 ± 0.22 | 3.72 ± 0.067 | 3.51 ± 0.22 |
| SAGGSAGGSAGWRAKVYPPGNGEPIGTIEIPKDWTPSQIKEIADDLQKKFPPGWRVEIEDSAGGSAGGSAGG [r11_1081_TrROS] | 1.72 ± 0.051 | 0.904 ± 0.093 | 1.38 ± 0.12 |
| SAGGSAGGSAGYIWIPAKDFAKYIAEEHEEKGYQINIPVEVRPDNWVWIDIEIQPLKPGQSAGGSAGGSAGG [r11_214_TrROS] | 0.644 ± 0.048 | 1.3 ± 0.096 | 1.04 ± 0.086 |
| SAGGSAGGSAGYLYFISIEFNLQWNGDGNLQLQPKIEIQRIEIPPPPPKWKYDGNKPKYDSAGGSAGGSAGG [r17_418_TrROS] | 2.44 ± 0.12 | 3.44 ± 0.048 | 3.04 ± 0.17 |
| SAGGSAGGSAIKAPPNSKIIKIEVKPLPNGDLLVEITIIDVPPDDSIGSGKYKILIKLEKGGSAGGSAGGSA [r18_273_TrMRF] | 2.81 ± 0.3 | 3.1 ± 0.16 | 3.02 ± 0.26 |
